Assay results published in publication doi:10.1101/2022.01.09.475567.

Target: NP:WT-C-His (nucleoprotein) (Influenza A virus A/Puerto Rico/8/1934 …, UniProt P03466 1-498)
Test: BLI

Sequence of NP:WT-C-His (nucleoprotein) (P03466 whole entry): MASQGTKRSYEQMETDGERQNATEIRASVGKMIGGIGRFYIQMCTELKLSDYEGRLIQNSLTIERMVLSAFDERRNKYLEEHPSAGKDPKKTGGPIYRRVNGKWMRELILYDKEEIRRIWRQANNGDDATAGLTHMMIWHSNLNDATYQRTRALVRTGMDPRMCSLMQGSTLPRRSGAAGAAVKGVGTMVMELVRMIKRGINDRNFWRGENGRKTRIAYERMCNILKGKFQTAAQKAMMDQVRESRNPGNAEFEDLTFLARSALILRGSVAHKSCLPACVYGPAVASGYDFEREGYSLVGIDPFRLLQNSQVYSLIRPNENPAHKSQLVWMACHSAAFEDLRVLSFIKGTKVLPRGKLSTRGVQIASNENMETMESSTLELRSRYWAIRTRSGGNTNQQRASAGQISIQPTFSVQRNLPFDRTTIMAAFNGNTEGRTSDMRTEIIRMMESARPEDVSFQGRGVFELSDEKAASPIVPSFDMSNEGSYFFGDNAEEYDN

UUUGUUACACACACACACGCUGUG (ssRNA) [24nt ssRNA]
Kd: 2.48 ± 0.091 nM
